This is an account of results in US20170173114A1, “METHODS AND COMPOSITIONS FOR INDUCTION OF UCP1 EXPRESSION” (Joslin Diabetes Center, Inc., priority 2014, published 2017).

In test [1] the test system is UCP1. Description: UCP1 mRNA expression (Q-RT-PCR) in WT-1 brown preadipocytes. It counts as cell-based, murine. As to the method:
Total RNA was isolated with QIAzol lysis reagent (Qiagen, Valencia, Calif.) and purified by RNeasy Mini columns (Qiagen) following the manufacture's instructions. cDNA was prepared from total RNA using the Advantage RT-PCR kit (BD Biosciences, Palo Alto, Calif.) according to manufacturer's instructions. Diluted cDNA was used in a PCR reaction with SYBR Green Master Mix (Applied Biosystems, Foster City, Calif.) and primers specifically designed for detection of the gene of interest. PCR reactions were run in duplicate for each sample and quantitated in the ABI Sequence Detection System (Applied Biosystems). Data were expressed as arbitrary units after normalization to levels of expression of internal controls for each sample. Sequences of primers for specific genes are each obtained from the published literature or designed using publically available gene sequence databases. Unless otherwise indicated, gene expression data described in the examples below was obtained using QPCR.
The effect of FGF6 on differentiation of WT-1 murine brown preadipocytes was also examined. WT-1 cells can be induced to undergo brown adipocyte differentiation, characterized by lipid accumulation and expression of adipogenic and brown fat markers, as described above (Klein et al. (1999) J Biol Chem 274:34795; Tseng et al. (2005) Nat Cell Biol 7:601). WT-1 cells were treated with FGF6 in growth media (DMEM+10% FBS), a vehicle control (“control” or “C” referred to in FIGS. 3A-D), or induction media (“induction” or “I” referred to in FIGS. 3A-D) as described above for seven days. Following the treatment, cells were examined for the color of the culture media in combination with oil Red O staining, expression of adipogenic markers, expression of brown fat markers, immunofluorescent staining of cells with UCP1 and DPAI, and Western blot analysis to determine the presence of UCP1 and β-tubulin. The results are described in FIGS. 3A to 3D.
UCP1 mRNA expression in brown adipocyte cells was determined at FGF6 concentrations ranging from 0 to 300 ng/ml in the absence of induction cocktail.
In order to determine the length of time necessary to induce UCP1 expression upon exposure to of cells to FGF6, an experiment was performed whereby FGF6 was administered to brown preadipocytes at a concentration of 200 ng/ml and UCP1 expression was determined. FGF21 and a control were also used in the time course experiment. FGF21, a member of the endocrine FGF ligands that has been implicated in the browning of white fat (Fisher F. M. et al., Genes Dev. 26:271-281, 2012). […] FGF6 could acutely induce a significant increase of UCP1 expression as early as 4 hours after a 200 ng/ml dose, as described in FIG. 4B. At 24 hours, the fold-induction of UCP1 mRNA by FGF6 reached 700-fold higher than the untreated cells, as described in FIG. 4B.
To assess FGF6's role in the regulation of mitochondrial activity, FGF6 was stably expressed in WT-1 brown preadipocytes and 3T3-F442A white preadipocytes. Stable cells were generated by viral infection followed by drug selection.
FGF2, FGF6 and FGF9 were used at a dosage of 50 ng/mL, 100 ng/mL, 200 ng/mL or 300 ng/mL. FGF21 was used at the dosage of 50 ng/ml and 500 ng/mL. The concentration of BMP7 was 3.3 nM. RNA was isolated and UCP1 and PPARγ expression levels were evaluated by quantitative reverse transcription polymerase chain reaction (Q-RT-PCR) analysis after 24 hours (i.e., 1 day) (FIG. 14A), 2 days (FIG. 14B), 5 days (FIG. 14C) and 7 days (FIG. 14D) of treatment. All experiments were performed triplicate and the data are presented as mean+/−SEM.
FGF2, FGF6 and FGF9 were used at a dosage of 200 ng/mL. FGF21 was used at a dosage of 500 ng/mL. The concentration of BMP7 was 3.3 nM. mRNA was isolated and UCP1 and PPARγ expression levels were evaluated by quantitative reverse transcription polymerase chain reaction (Q-RT-PCR) analysis after 24 hours (i.e., 1 day), 2 days, 5 days and 7 days of treatment (FIG. 15). […]

In test [2] the test system is UCP1. In words: UCP1 mRNA expression in SVF cells from subcutaneous white adipose tissue (SQ-SVF). In kind it is cell-based, C57BL/6 mice. Particulars: growth media, 3 days; vs control. On the procedure:
(§1) Eight 6-week old C57BL/6 male mice were sacrificed. Interscapular BAT and axillary subcutaneous WAT were removed, minced and digested with 1 mg/ml collagenase for 45 minutes at 37° C. in DMEM/F12 media, containing 1% BSA and antibiotics. Digested tissues were filtered through sterile 150 μm nylon mesh and centrifuged at 250×g for 5 minutes. The floating fractions consisting of adipocytes were discarded and the pellets representing the SVF were then resuspended in erythrocyte lysis buffer (154 mM NH4Cl, 10 mM KHCO3, 0.1 mM EDTA) for 10 minutes to remove red blood cells. The cells were further centrifuged at 500×g for 5 minutes, plated at 8×10^5 cells/well of a 24-well plate and grown at 37° C. in DMEM/F12 supplemented with 10% FBS at 37° C.
(§2) To determine if FGF6 treatment of primary adipose progenitors could also increase UCP1 expression as observed in Example 1, stromo-vascular fraction (SVF) cells, which comprise adipocyte progenitors, were isolated from interscapular brown adipose tissue (BAT-SVF) and subcutaneous white adipose tissue (SQ-SVF). SVF cells were subsequently treated with FGF6 or FGF21 in growth media (DMEM+10% FBS) for 3 days, followed by determination of UCP1 expression. As described in FIGS. 9A and 9B, FGF21 treatment had little effect on UCP1 mRNA expression in either type of SVF cells, as compared to the control. […]

In test [3] the test system is UCP1. In words: UCP1 mRNA expression in SVF cells from interscapular brown adipose tissue (BAT-SVF). It counts as cell-based, C57BL/6 mice. Particulars: growth media, 3 days; vs control. On the procedure: as §1, §2
Test [4] relates to UCP1. In words: UCP1 mRNA expression in C2C12 myogenic progenitors. In kind it is cell-based. Particulars: three days.
For test [5], the system named is 3T3-F442A white preadipocytes. Description: 2-deoxy-[3H]glucose uptake in 3T3-F442A white preadipocytes. It counts as cell-based. Conditions: FGF6 overexpressing vs control and EGF. As to the method: (§3) The following glucose uptake assay was used to determine whether FGF6 could impact cellular glucose uptake. Specifically, glucose uptake was monitored in WT-1 brown preadipocytes and 3T3-F442A white preadipocytes in the presence or absence of FGF6. After serum starvation in DMEM/H medium containing 1% of BSA for 2-3 h, cells were washed with HEPES buffer and then incubated with or without 100 nM insulin for 30 min in DMEM/H medium containing 1% of BSA. Glucose transport was determined by the addition of 2-deoxy-[3H]glucose (0.1 mM, 0.5 μCi/mL; PerkinElmer Life and Analytical Science, Waltham, Mass.). After 5 minutes of incubation, the reaction was stopped by ice-cold PBS and cells were washed twice with ice-cold PBS. Cells were then lysed in 0.1% SDS, and glucose uptake was assessed in 4 mL of scintillant using Beckman LS6500 scintillation counter (Beckman Coulter, Indianapolis Ind.). Nonspecific 2-deoxy-[3H]glucose uptake was measured in the presence of cytochalasin B (20 μM) and was subtracted from the total uptake to get specific glucose uptake. Results were expressed as the mean±s.e.m. of the indicated number of experiments. The protein content was determined by the Bradford method.

A further test has as its system WT-1 brown preadipocytes. Description: 2-deoxy-[3H]glucose uptake in WT-1 brown preadipocytes. In kind it is cell-based, murine. Conditions: FGF6 overexpressing vs control and EGF. As to the method:
as §3
The role of PGs in regulating mitochondrial function and cellular glucose uptake was also assessed. […]

[6] abbreviates: FGF21 50 and 500 ng/mL, BMP7 3.3 nM, with insulin and T3.

Entries after “also recorded” stand apart in the source; their conditions may differ.

B1: FGF21: fibroblast growth factor 21, member of the endocrine FGF ligands (protein, listed as Homo sapiens)
chain: MDSDETGFEHSGLWVSVLAGLLLGACQAHPIPDSSPLLQFGGQVRQRYLYTDDAQQTEAHLEIREDGTVGGAADQSPESLLQLKALKPGVIQILGVKTSRFLCQRPDGALYGSLHFDPEACSFRELLLEDGYNVYQSEAHGLPLHLPGNKSPHRDPAPRGPARFLPLPGLPPALPEPPGILAPQPPDVGSSDPLSMVGPSQGRSPSYAS
B1: in the test with UCP1 [1] (FGF2, FGF6, FGF9 200 ng/mL, FGF21 500 ng/mL, with insulin and T3, 1, 2, 5, 7 days), the “UCP1 expression level, time course” value is listed as “did not express detectable amounts of UCP1”. In the test with UCP1 [1] (setting [6]), the “UCP1 expression level at day 7” value is “only minimal amounts”; the “UCP1 expression level at days 1, 2 and 5” value is on record as “did not express detectable amounts of UCP1”. In the test with UCP1 [1] (data not shown), the “effect on UCP1 expression in brown preadipocytes cultured in growth media” value is “marginal effect”. The “effect on UCP1 mRNA expression in SQ-SVF” value with UCP1 [2] is given as “little effect”. In addition, the “effect on UCP1 mRNA expression in BAT-SVF” value in the test with UCP1 [3] is “little effect”. The “UCP1 mRNA expression in C2C12 myogenic progenitors” value in the test with UCP1 [4] was “neither FGF6 nor FGF21 induced UCP1 mRNA expression; also recorded: no induction of UCP1”.

B2: EGF: control treatment in glucose uptake assay (protein, UniProt P01133 23-1207, looked up)
Pro-epidermal growth factor: PQHWSCPEGTLAGNGNSTCVGPAPFLIFSHGNSIFRIDTEGTNYEQLVVDAGVSVIMDFHYNEKRIYWVDLERQLLQRVFLNGSRQERVCNIEKNVSGMAINWINEEVIWSNQQEGIITVTDMKGNNSHILLSALKYPANVAVDPVERFIFWSSEVAGSLYRADLDGVGVKALLETSEKITAVSLDVLDKRLFWIQYNREGSNSLICSCDYDGGSVHISKHPTQHNLFAMSLFGDRIFYSTWKMKTIWIANKHTGKDMVRINLHSSFVPLGELKVVHPLAQPKAEDDTWEPEQKLCKLRKGNCSSTVCGQDLQSHLCMCAEGYALSRDRKYCEDVNECAFWNHGCTLGCKNTPGSYYCTCPVGFVLLPDGKRCHQLVSCPRNVSECSHDCVLTSEGPLCFCPEGSVLERDGKTCSGCSSPDNGGCSQLCVPLSPVSWECDCFPGYDLQLDEKSCAASGPQPFLLFANSQDIRHMHFDGTDYGTLLSQQMGMVYALDHDPVENKIYFAHTALKWIERANMDGSQRERLIEEGVDVPEGLAVDWIGRRFYWTDRGKSLIGRSDLNGKRSKIITKENISQPRGIAVHPMAKRLFWTDTGINPRIESSSLQGLGRLVIASSDLIWPSGITIDFLTDKLYWCDAKQSVIEMANLDGSKRRRLTQNDVGHPFAVAVFEDYVWFSDWAMPSVMRVNKRTGKDRVRLQGSMLKPSSLVVVHPLAKPGADPCLYQNGGCEHICKKRLGTAWCSCREGFMKASDGKTCLALDGHQLLAGGEVDLKNQVTPLDILSKTRVSEDNITESQHMLVAEIMVSDQDDCAPVGCSMYARCISEGEDATCQCLKGFAGDGKLCSDIDECEMGVPVCPPASSKCINTEGGYVCRCSEGYQGDGIHCLDIDECQLGEHSCGENASCTNTEGGYTCMCAGRLSEPGLICPDSTPPPHLREDDHHYSVRNSDSECPLSHDGYCLHDGVCMYIEALDKYACNCVVGYIGERCQYRDLKWWELRHAGHGQQQKVIVVAVCVVVLVMLLLLSLWGAHYYRTQKLLSKNPKNPYEESSRDVRSRRPADTEDGMSSCPQPWFVVIKEHQDLKNGGQPVAGEDGQAADGSMQPTSWRQEPQLCGMGTEQGCWIPVSSDKGSCPQVMERSFHMPSYGTQTLEGGVEKPHSLLSANPLWQQRALDPPHQMELTQ
modifications: Pro-epidermal growth factor
Consider B2, for which the “glucose uptake level in F442A (white) preadipocytes” value in test [5] is “no substantial effect”. Besides, the “glucose uptake level in WT-1 (brown) preadipocytes” value with WT-1 brown preadipocytes was “no substantial effect”.
